The source of these data is PMC9396398, “Crystal structure of Ankyrin-G in complex with a fragment of Neurofascin reveals binding mechanisms required for integrity of the axon initial segment” (The Journal of Biological Chemistry, 2022).

The target of one assay is T1, AnkG R6-24 (Rattus norvegicus).
T1 chain: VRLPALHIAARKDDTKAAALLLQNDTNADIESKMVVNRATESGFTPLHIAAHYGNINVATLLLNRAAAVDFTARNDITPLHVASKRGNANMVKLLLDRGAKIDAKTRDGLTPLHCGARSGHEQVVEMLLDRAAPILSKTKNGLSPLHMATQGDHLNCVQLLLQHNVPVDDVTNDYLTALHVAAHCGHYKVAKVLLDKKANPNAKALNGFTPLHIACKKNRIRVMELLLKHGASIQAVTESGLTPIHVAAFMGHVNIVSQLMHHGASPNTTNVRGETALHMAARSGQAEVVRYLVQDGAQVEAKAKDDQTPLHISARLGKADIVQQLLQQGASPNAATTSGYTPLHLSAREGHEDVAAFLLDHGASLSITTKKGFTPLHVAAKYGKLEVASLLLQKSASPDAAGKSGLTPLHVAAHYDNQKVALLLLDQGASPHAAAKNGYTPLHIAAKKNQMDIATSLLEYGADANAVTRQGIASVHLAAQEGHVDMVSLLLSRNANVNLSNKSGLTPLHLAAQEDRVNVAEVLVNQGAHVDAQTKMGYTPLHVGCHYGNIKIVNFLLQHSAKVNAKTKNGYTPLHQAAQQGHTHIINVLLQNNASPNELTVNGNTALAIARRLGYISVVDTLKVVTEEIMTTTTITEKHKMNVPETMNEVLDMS
Description: ITC. Background: ITC needs no label: the signal is the heat of the interaction.

Another assay has as its target T2, AnkG R8-24 (Rattus norvegicus).
T2 chain: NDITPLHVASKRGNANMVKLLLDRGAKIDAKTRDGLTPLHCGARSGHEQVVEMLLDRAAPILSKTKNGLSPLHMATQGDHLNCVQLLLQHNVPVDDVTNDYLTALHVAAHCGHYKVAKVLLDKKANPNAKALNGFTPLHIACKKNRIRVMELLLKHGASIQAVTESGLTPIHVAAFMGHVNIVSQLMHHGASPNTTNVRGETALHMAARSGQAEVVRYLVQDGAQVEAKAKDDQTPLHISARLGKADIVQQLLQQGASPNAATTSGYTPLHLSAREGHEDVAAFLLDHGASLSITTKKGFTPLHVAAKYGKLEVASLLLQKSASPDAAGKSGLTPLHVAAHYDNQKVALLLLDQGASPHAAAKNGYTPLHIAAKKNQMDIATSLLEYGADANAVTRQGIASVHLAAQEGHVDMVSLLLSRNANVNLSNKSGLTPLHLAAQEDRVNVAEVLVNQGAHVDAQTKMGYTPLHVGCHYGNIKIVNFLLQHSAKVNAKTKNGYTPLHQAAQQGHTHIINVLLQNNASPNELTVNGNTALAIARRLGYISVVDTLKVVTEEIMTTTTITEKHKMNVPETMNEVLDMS
Put plainly: ITC.

B1: Nfasc ankyrin-binding domain (ABD, residues 1187-1214) (domain or fragment, UniProt P97685 1187-1214, looked up)
chain: SDDSLVDYGEGGEGQFNEDGSFIGQYTV
notes: also called Nfasc ABD; source: E. coli BL21 (DE3), purified (Ni-NTA, size-exclusion chromatography)
With B1, the Kd in the assay with AnkG R6-24 is 130 nM; with AnkG R8-24, 1100 nM.

The term Kd denotes the constant that tells how readily two partners part at equilibrium. Read a low Kd as tighter binding.
